Data taken from patent US20260098270, “MULTIVALENT TRIDENT […] FOR MOLECULAR RECOGNITION, METHODS OF MAKING AND USES […]” (MCMASTER UNIVERSITY, published 2026).

Tests used:
VEGF165 = VEGF165 (UniProt P15692-4 P15692-4:27-191); test: filter; conditions: chain copies: 2 (stated dimeric)
[1] = biological target: SARS-CoV-2 spike S1 subunit (SARS-CoV-2, UniProt P0DTC2 P0DTC2:14-685); test: filter
Amylase = biological target: T1, Amylase (UniProt P0DUB6 P0DUB6:16-511); test: ELONA; conditions: tags: Sigma-Aldrich A1031
T1 sequence: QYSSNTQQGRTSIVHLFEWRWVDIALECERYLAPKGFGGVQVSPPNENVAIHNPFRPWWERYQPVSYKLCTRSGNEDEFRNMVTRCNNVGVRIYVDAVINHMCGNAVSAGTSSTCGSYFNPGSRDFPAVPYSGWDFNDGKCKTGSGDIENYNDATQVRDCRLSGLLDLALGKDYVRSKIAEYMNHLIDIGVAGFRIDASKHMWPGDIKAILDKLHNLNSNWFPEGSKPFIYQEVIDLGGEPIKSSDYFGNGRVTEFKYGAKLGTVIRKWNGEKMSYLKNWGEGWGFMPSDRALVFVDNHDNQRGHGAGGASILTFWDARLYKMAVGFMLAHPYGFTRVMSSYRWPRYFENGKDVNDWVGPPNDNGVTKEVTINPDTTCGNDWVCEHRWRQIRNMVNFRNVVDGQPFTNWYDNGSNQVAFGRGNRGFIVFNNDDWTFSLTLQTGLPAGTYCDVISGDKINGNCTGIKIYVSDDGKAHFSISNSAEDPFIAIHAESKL

SARS-CoV-1 spike protein = SARS-CoV-1 spike protein (SARS-CoV-1, UniProt P59594 P59594:14-1195); test: ELONA; conditions: tags: from Dr. Matthew Miller's lab, McMaster University; label: biotin
[2] = biological target: Spike RBD of seasonal coronavirus OC43 (Human coronavirus OC43, UniProt P36334 P36334:333-607); test: ELONA; conditions: tags: from Dr. Matthew Miller's lab, McMaster University
Chain of Spike RBD of seasonal coronavirus OC43 (P36334 333-607, one chain of several): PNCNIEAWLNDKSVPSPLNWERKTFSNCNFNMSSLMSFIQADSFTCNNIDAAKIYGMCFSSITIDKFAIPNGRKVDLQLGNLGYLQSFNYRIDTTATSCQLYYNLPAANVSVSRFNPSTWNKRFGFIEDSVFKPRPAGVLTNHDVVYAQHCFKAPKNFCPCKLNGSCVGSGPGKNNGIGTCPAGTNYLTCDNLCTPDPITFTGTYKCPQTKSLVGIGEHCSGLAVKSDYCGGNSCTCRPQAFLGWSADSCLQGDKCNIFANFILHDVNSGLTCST

[3] = biological target: Spike RBD of seasonal coronavirus 229E (Human coronavirus 229E, UniProt P15423 P15423:293-435); test: ELONA; conditions: tags: from Dr. Matthew Miller's lab, McMaster University
Chain of Spike RBD of seasonal coronavirus 229E (P15423 293-435, one chain of several): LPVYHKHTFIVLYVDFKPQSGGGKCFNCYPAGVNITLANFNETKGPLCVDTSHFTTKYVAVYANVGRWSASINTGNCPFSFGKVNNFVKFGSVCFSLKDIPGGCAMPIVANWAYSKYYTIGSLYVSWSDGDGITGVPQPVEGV

[4] = biological target: T2, Bovine serum albumin (BSA) (Bos taurus, UniProt P02769 P02769:25-607); test: ELONA; conditions: tags: Sigma-Aldrich A7906
T2 sequence (P02769 25-607, one chain of several): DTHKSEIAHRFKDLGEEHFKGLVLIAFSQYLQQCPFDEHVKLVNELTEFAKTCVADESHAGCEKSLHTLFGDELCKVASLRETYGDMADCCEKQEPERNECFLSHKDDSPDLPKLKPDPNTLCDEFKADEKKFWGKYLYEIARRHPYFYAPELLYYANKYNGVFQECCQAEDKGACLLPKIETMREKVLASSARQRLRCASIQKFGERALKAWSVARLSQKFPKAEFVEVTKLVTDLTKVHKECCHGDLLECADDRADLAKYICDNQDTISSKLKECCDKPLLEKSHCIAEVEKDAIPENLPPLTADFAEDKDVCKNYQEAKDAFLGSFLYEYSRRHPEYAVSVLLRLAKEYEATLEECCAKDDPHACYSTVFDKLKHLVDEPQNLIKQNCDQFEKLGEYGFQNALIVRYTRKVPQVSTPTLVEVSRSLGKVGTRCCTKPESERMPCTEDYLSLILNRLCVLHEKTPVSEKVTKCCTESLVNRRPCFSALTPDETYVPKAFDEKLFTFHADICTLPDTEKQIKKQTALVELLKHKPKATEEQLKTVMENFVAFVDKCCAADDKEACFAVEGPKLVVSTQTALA

[5] = biological target: T2, Bovine serum albumin (BSA); test: filter; dot blot, no binding; conditions: tags: Sigma-Aldrich A7906; label: 5'-32P

Chain of VEGF165 (P15692 other isoform, or with tags, fused parts or gaps): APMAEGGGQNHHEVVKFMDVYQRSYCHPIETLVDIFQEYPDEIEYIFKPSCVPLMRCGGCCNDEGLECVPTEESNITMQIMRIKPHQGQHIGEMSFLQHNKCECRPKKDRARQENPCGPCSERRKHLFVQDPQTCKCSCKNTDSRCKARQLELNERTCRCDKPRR

B1: H1A (ssDNA)
DNA: GCCCGTCTTCCAGACAAGAGTGCAGGGC
Kd (VEGF165): 21.3 nM

B2: TMSA52T8 (ssDNA)
DNA: CGAAGCATCTCGTGTCACTCCGTAGGGTTTGGCTCCGGGCCTGGCGTCGTTTTTCTCTCGC
modifications: three identical arms joined by Trebler, root TTTTT-Biotin
Kd [1]: 0.21 nM

B3: Trimeric (trident) H1A (ssDNA)
DNA: GCCCGTCTTCCAGACAAGAGTGCAGGGCTTTTTCTCTCGC
modifications: three identical arms joined by Trebler, root TTTTT-Biotin
Kd (VEGF165): 0.27 nM

B4: MSA52T8 (ssDNA)
DNA: CGAAGCATCTCGTGTCACTCCGTAGGGTTTGGCTCCGGGCCTGGCGTCG
Kd [1]: 6.5 nM

B5: TMSA52-B (ssDNA)
DNA: TTACGTCAAGGTGTCACTCCGTAGGGTTTGGCTCCGGGCCTGGCGTCGGTCGTCTCTCGCGAAGCATCTCTTTGGCGTGTTTTTTTTTTTTTTT
modifications: three identical arms joined by Trebler, root TTTTT-Biotin
binding result (Amylase): no binding | binding result (SARS-CoV-1 spike protein): no binding | binding result [2]: no binding | binding result [3]: no binding | binding result [4]: no binding

B6: Trimeric (trident) RHA06 (ssDNA)
DNA: GGGTTTGGGTTGGGTTGGGTTTTTGGGTTTGGGTTGGGTTGGGAAAAATTTTTCTCTCGC
modifications: three identical arms (SEQ 12) joined by Trebler, root TTTTT-Biotin
binding result [5]: no binding
